The values below come from US20040082496.

The test system of data set [1] is T1, Mca-Ala-Pro-(Dnp)Lys-OH (AnaSpec MIPH1).
T1 sequence: APK

Another data set has as its target Neurotensin (1-13) (UniProt P30990).
Data set [2] concerns T2, Mca-Tyr-Val-Ala-Asp-Ala-Pro-(Dnp)Lys-OH (Caspase 1 substrate, Bachem M-2195).
T2 sequence: YVADAPK

The test system of data set [3] is T1, Mca-Ala-Pro-(Dnp)Lys-OH (AnaSpec MIPH1). Kind of data set: fluorogenic substrate cleavage by purified ACE-2, microtitre plate.
Data set [4] concerns T2, Mca-Tyr-Val-Ala-Asp-Ala-Pro-(Dnp)Lys-OH (Caspase 1 substrate, Bachem M-2195). Described as above.

What is called kcat/Km is the turnover number divided by the Michaelis constant. What is called Km is the substrate concentration at which the rate is half of its maximum. For the substance “secreted ACE-2 purified from CHO K1 cell supernatant (expression vector pMD37)”, the “hydrolysis followed by mass spectroscopy” value in the data set on Angiotensin I(1-10) was “When treated with ACE-2, mass spectroscopy data shows that Angiotensin I (1-10) is converted to Angiotensin I (1-9)”; with Neurotensin (1-13), “ACE-2 hydrolyzes Neurotensin (1-13) to Neurotensin (1-12)”; with (Des-Arg^9) Bradykinin, “ACE-2 can hydrolyze des-Arg bradykinin”; in data set [2], “ACE-2 hydrolysed this substance between the P1 proline and P1′ (DNP)Lys”. In addition, the kcat/Km in data set [1] turned out to be 230000 M⁻¹ s⁻¹; in data set [2] it was 42000 M⁻¹ s⁻¹. For the same substance, the values for the Km in data set [3] and in data set [4] were 340 µM and 130 µM, respectively.
